Experiments:
human GFRAL (human) = human GFRAL (human) (UniProt Q6UXV0); assay: cell-based or functional assay
[1] = target: the molecule itself; assay: SEC of the purified Fc (self-association, aggregate state)
[2] = target: the molecule itself; assay: SEC of the purified Fc (self-association)

human GFRAL (human), sequence (Q6UXV0 19-394): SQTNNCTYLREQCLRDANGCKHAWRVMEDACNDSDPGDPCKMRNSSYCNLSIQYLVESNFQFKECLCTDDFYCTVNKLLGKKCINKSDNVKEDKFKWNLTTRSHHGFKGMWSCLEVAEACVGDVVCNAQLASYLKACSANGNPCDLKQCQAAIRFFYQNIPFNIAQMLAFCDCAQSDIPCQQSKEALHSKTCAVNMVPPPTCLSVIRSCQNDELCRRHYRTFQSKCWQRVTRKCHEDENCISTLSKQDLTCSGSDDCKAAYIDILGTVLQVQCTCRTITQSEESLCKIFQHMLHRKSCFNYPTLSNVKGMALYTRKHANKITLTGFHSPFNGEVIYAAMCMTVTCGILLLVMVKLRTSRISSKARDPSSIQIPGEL

| Molecule | binding result [1] | also measured |
| --- | --- | --- |
| native GDF15 (from UniProt Q99988 197-308) (ligand) |  | Relative activity ratio (native GDF15 EC50 : construct EC50), phospho-ERK1/2 HTRF in HEK293T cells expressing human GFRAL and RET (human GFRAL (human)): 1 |
| IgG4 Fc (AA, K439E) (other, One Fc polypeptide) EAAGGPSVFLFPPKPKDTLMISRTPEVTCVVVDVSQEDPEVQFNWYVDGVEVHNAKTKPREEQFNSTYRVVSVLTVLHQDWLNGKEYKCKVSNKGLPSSIEKTISKAKGQPREPQVYTLPPSQEEMTKNQVSLTCLVKGFYPSDIAVEWESNGQPENNYKTTPPVLDSDGSFFLYSRLTVDKSRWQEGNVFSCSVMHEALHNHYTQESLSLSLG | binds |  |
| IgG4 Fc (AA, F405Q/Y407E) (other, Control Fc; found as a monomer by SEC; also called monomeric Fc molecule) EAAGGPSVFLFPPKPKDTLMISRTPEVTCVVVDVSQEDPEVQFNWYVDGVEVHNAKTKPREEQFNSTYRVVSVLTVLHQDWLNGKEYKCKVSNKGLPSSIEKTISKAKGQPREPQVYTLPPSQEEMTKNQVSLTCLVKGFYPSDIAVEWESNGQPENNYKTTPPVLDSDGSFQLESRLTVDKSRWQEGNVFSCSVMHEALHNHYTQKSLSLSLG |  | binding result [2]: no binding |
| IgG4 Fc (AA, K439D) (other, One Fc polypeptide) EAAGGPSVFLFPPKPKDTLMISRTPEVTCVVVDVSQEDPEVQFNWYVDGVEVHNAKTKPREEQFNSTYRVVSVLTVLHQDWLNGKEYKCKVSNKGLPSSIEKTISKAKGQPREPQVYTLPPSQEEMTKNQVSLTCLVKGFYPSDIAVEWESNGQPENNYKTTPPVLDSDGSFFLYSRLTVDKSRWQEGNVFSCSVMHEALHNHYTQDSLSLSLG | binds |  |

From US20240343770A1 (SUNSHINE LAKE PHARMA, published 2024)
